Tests used:
[1] = molecular target: type-I GnRH binding site in the pituitary of adult male land-locked P. marinus (P. marinus (sea lamprey)); experiment: competition with iodinated [DAla6,Pro9Net]-mammalian GnRH tracer, pituitary of adult male P. marinus; Ki from IC50
[2] = molecular target: type-II GnRH binding site in the pituitary of adult male land-locked P. marinus (P. marinus (sea lamprey)); experiment: as above
[3] = molecular target: type-I GnRH binding site in the pituitary of adult male land-locked P. marinus (P. marinus (sea lamprey)); experiment: self-displacement of iodinated [DAla6,Pro9Net]-mammalian GnRH tracer, pituitary of adult male P. marinus; Ki from IC50
[4] = molecular target: type-II GnRH binding site in the pituitary of adult male land-locked P. marinus (P. marinus (sea lamprey)); experiment: as above

Substance | Ki [1] [nM] | Ki [2] [µM] | Ki [3] [pM] | Ki [4] [nM]
[D-Phe^2,6, Pro^3]-lGnRH-III (peptide) | 0.03 | 52.2 | – | –
[D-Phe^2, Gly^6]-lGnRH-III (peptide) | 0.00383 | 0.655 | – | –

Next, values leading:

Ki [1] [nM] | Ki [2] [µM] | Ki [3] [pM] | Ki [4] [nM] | Substance
7.1 | 8.94 | – | – | [Ac-Delta-3Pro, 4FDPhe^2-D-Trp^3,6]-lGnRH-III (peptide)
1.37 | 5.65 | – | – | [D-Phe^2, Gly^6]-lGnRH-I (peptide)
– | – | 3.11 | 89 | [DAla^6, Pro^9Net]-mammalian GnRH (peptide)

Source: patent US20030236184A1
